This note sets out measurements from the RNAGym collection of RNA variant scans (doi:10.1021/acssynbio.7b00057).

Sequences and labels used below:
B1: Pistol ribozyme (parent)
chain: GGGUCGUUGUUCCAUAAUCGCGUGGAUAUGGCACGCAAGUUUCUACCGGGCACCGUAAAUGUCCGACUGGAGCCGUUCGGGCGGCUAUAAACAGACCUCAGGCCCGAAGCGUGGCGGCACCUGCCGCCGGUGGUAAAAAAGAUCGGAAGAGCACACGUCU

The variants in this data set derive from B1. Description: aptazyme ON/OFF ratio, guanine; higher = stronger switching; co-transcriptional cleavage with and without guanine.
With GGGUCGCGAUAACAUAAUCGCGUGGAUAUGGCACGCAAGUUUCUACCGGGCACCGUAAAUGUCCGACUGGAGCCGUUCGGGCGGCUAUAAACAGACCUCAGGCCCGAAGCGUGGCGGCACCUGCCGCCGGUGGUAAAAAAGAUCGGAAGAGCACACGUCU [U7C U8G G9A U11A C12A], the “aptazyme ON/OFF ratio” value came out at 1.29. The figure for GGGUCGUGAAGAAAUAAUCGCGUGGAUAUGGCACGCAAGUUUCUACCGGGCACCGUAAAUGUCCGACUGGAGCCGUUCGGGCGGCUAUAAACAGACCUCAGGCCCGAAGCGUGGCGGCACCUGCCGCCGGUGGUAAAAAAGAUCGGAAGAGCACACGUCU [U8G G9A U10A U11G C12A C13A] is 1.17; for GGGUCGUAGCGCGAUAAUCGCGUGGAUAUGGCACGCAAGUUUCUACCGGGCACCGUAAAUGUCCGACUGGAGCCGUUCGGGCGGCUAUAAACAGACCUCAGGCCCGAAGCGUGGCGGCACCUGCCGCCGGUGGUAAAAAAGAUCGGAAGAGCACACGUCU [U8A U10C U11G C13G] it is 1.13; for GGGUCGAUAUGUCAUAAUCGCGUGGAUAUGGCACGCAAGUUUCUACCGGGCACCGUAAAUGUCCGACUGGAGCCGUUCGGGCGGCUAUAAACAGACCUCAGGCCCGAAGCGUGGCGGCACCUGCCGCCGGUGGUAAAAAAGAUCGGAAGAGCACACGUCU [U7A G9A U11G C12U] it is 2.19.

For the variant GGGUCGAUUAGUGAUAAUCGCGUGGAUAUGGCACGCAAGUUUCUACCGGGCACCGUAAAUGUCCGACUGGAGCCGUUCGGGCGGCUAUAAACAGACCUCAGGCCCGAAGCGUGGCGGCACCUGCCGCCGGUGGUAAAAAAGAUCGGAAGAGCACACGUCU [U7A G9U U10A U11G C12U C13G], the “aptazyme ON/OFF ratio” value turned out to be 1.13.

On to GGGUCGUUAGGGGAUAAUCGCGUGGAUAUGGCACGCAAGUUUCUACCGGGCACCGUAAAUGUCCGACUGGAGCCGUUCGGGCGGCUAUAAACAGACCUCAGGCCCGAAGCGUGGCGGCACCUGCCGCCGGUGGUAAAAAAGAUCGGAAGAGCACACGUCU [G9A U10G U11G C12G C13G], for which the “aptazyme ON/OFF ratio” value was 1.22.

With GGGUCGUAAAUUAAUAAUCGCGUGGAUAUGGCACGCAAGUUUCUACCGGGCACCGUAAAUGUCCGACUGGAGCCGUUCGGGCGGCUAUAAACAGACCUCAGGCCCGAAGCGUGGCGGCACCUGCCGCCGGUGGUAAAAAAGAUCGGAAGAGCACACGUCU [U8A G9A U10A C12U C13A], the “aptazyme ON/OFF ratio” value was determined as 1.2. The figure for GGGUCGUAAACUCAUAAUCGCGUGGAUAUGGCACGCAAGUUUCUACCGGGCACCGUAAAUGUCCGACUGGAGCCGUUCGGGCGGCUAUAAACAGACCUCAGGCCCGAAGCGUGGCGGCACCUGCCGCCGGUGGUAAAAAAGAUCGGAAGAGCACACGUCU [U8A G9A U10A U11C C12U] is 1.08; for GGGUCGCAAAUGCAUAAUCGCGUGGAUAUGGCACGCAAGUUUCUACCGGGCACCGUAAAUGUCCGACUGGAGCCGUUCGGGCGGCUAUAAACAGACCUCAGGCCCGAAGCGUGGCGGCACCUGCCGCCGGUGGUAAAAAAGAUCGGAAGAGCACACGUCU [U7C U8A G9A U10A C12G] it is 1.21.

GGGUCGGGGCAUGAUAAUCGCGUGGAUAUGGCACGCAAGUUUCUACCGGGCACCGUAAAUGUCCGACUGGAGCCGUUCGGGCGGCUAUAAACAGACCUCAGGCCCGAAGCGUGGCGGCACCUGCCGCCGGUGGUAAAAAAGAUCGGAAGAGCACACGUCU [U7G U8G U10C U11A C12U C13G]: the “aptazyme ON/OFF ratio” value was 1.37. The figure for GGGUCGCUCAAUUAUAAUCGCGUGGAUAUGGCACGCAAGUUUCUACCGGGCACCGUAAAUGUCCGACUGGAGCCGUUCGGGCGGCUAUAAACAGACCUCAGGCCCGAAGCGUGGCGGCACCUGCCGCCGGUGGUAAAAAAGAUCGGAAGAGCACACGUCU [U7C G9C U10A U11A C12U C13U] is 1.09. Turning to GGGUCGUUGACUAAUAAUCGCGUGGAUAUGGCACGCAAGUUUCUACCGGGCACCGUAAAUGUCCGACUGGAGCCGUUCGGGCGGCUAUAAACAGACCUCAGGCCCGAAGCGUGGCGGCACCUGCCGCCGGUGGUAAAAAAGAUCGGAAGAGCACACGUCU [U10A U11C C12U C13A], the “aptazyme ON/OFF ratio” value was 1.06.

As for GGGUCGGCUCUACAUAAUCGCGUGGAUAUGGCACGCAAGUUUCUACCGGGCACCGUAAAUGUCCGACUGGAGCCGUUCGGGCGGCUAUAAACAGACCUCAGGCCCGAAGCGUGGCGGCACCUGCCGCCGGUGGUAAAAAAGAUCGGAAGAGCACACGUCU [U7G U8C G9U U10C C12A], the “aptazyme ON/OFF ratio” value is 2.08. Consider GGGUCGUGAUCCAAUAAUCGCGUGGAUAUGGCACGCAAGUUUCUACCGGGCACCGUAAAUGUCCGACUGGAGCCGUUCGGGCGGCUAUAAACAGACCUCAGGCCCGAAGCGUGGCGGCACCUGCCGCCGGUGGUAAAAAAGAUCGGAAGAGCACACGUCU [U8G G9A U11C C13A], for which the “aptazyme ON/OFF ratio” value was 1.07. The figure for GGGUCGGAGACUUAUAAUCGCGUGGAUAUGGCACGCAAGUUUCUACCGGGCACCGUAAAUGUCCGACUGGAGCCGUUCGGGCGGCUAUAAACAGACCUCAGGCCCGAAGCGUGGCGGCACCUGCCGCCGGUGGUAAAAAAGAUCGGAAGAGCACACGUCU [U7G U8A U10A U11C C12U C13U] is 1.19; for GGGUCGAAGGAAAAUAAUCGCGUGGAUAUGGCACGCAAGUUUCUACCGGGCACCGUAAAUGUCCGACUGGAGCCGUUCGGGCGGCUAUAAACAGACCUCAGGCCCGAAGCGUGGCGGCACCUGCCGCCGGUGGUAAAAAAGAUCGGAAGAGCACACGUCU [U7A U8A U10G U11A C12A C13A] it is 1.64; for GGGUCGUCGCAUCAUAAUCGCGUGGAUAUGGCACGCAAGUUUCUACCGGGCACCGUAAAUGUCCGACUGGAGCCGUUCGGGCGGCUAUAAACAGACCUCAGGCCCGAAGCGUGGCGGCACCUGCCGCCGGUGGUAAAAAAGAUCGGAAGAGCACACGUCU [U8C U10C U11A C12U] it is 1.39. The figure for GGGUCGAGAUGUUAUAAUCGCGUGGAUAUGGCACGCAAGUUUCUACCGGGCACCGUAAAUGUCCGACUGGAGCCGUUCGGGCGGCUAUAAACAGACCUCAGGCCCGAAGCGUGGCGGCACCUGCCGCCGGUGGUAAAAAAGAUCGGAAGAGCACACGUCU [U7A U8G G9A U11G C12U C13U] is 1.5.
